The record followed here is paper PMC4237437, “Biochemical and Structural Characterization of Mycobacterial Aspartyl-tRNA Synthetase AspS, a Promising TB Drug Target” (PLoS ONE, 2014).

For data set [1], the target named is T1, Mt-AspS (M. tuberculosis aspartyl-tRNA synthetase) (Mycobacterium tuberculosis, UniProt P9WFW3).
T1 construct: C-terminally His6-tagged Mt-AspS (pET28b)
Nature of the data set: biochemical.

A further data set concerns N[C@@H](CC(=O)O)C(=O)O. Nature of the data set: purified protein.
For data set [2], the system named is Nc1ncnc2c1ncn2[C@@H]1O[C@H](COP(=O)(O)OP(=O)(O)NP(=O)(O)O)[C@@H](O)[C@H]1O. Nature of the data set: purified protein.
Data set [3] relates to Nc1ncnc2c1ncn2[C@@H]1O[C@H](COP(=O)(O)OP(=O)(O)CP(=O)(O)O)[C@@H](O)[C@H]1O. Nature of the data set: purified protein.
A further data set has as its system O=P(O)(O)OP(=O)(O)O. The data set is described as follows: purified protein.
Data set [4] concerns the molecule itself. The data set is described as follows: crystal structure; apo Ms-AspS, 2.4 Å, space group C222(1), one molecule per asymmetric unit; the two monomers of the dimer are related by crystal symmetry; crystals from 30% pentaerythritol ethoxylate, 0.1 M magnesium formate, 0.1 M Tris-HCl pH 8.5.

T1 sequence (P9WFW3 whole entry): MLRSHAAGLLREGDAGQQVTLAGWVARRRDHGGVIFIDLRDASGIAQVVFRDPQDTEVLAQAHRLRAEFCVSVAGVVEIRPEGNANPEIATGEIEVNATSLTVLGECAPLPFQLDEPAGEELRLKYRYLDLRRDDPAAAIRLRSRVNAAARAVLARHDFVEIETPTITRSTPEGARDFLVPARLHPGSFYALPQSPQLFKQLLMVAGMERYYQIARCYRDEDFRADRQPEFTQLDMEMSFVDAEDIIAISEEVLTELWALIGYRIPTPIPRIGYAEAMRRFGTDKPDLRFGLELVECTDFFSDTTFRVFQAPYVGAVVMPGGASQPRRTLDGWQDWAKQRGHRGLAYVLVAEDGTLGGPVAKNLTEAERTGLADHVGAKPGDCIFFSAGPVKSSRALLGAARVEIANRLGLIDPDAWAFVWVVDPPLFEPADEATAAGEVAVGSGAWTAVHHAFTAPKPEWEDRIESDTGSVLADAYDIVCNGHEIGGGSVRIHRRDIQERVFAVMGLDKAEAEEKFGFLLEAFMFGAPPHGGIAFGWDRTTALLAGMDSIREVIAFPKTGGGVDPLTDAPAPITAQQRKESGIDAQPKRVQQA

Take `NC(=O)C1CCN(C2=NC(=O)/C(=C\c3ccc(Cl)cc3Cl)S2)CC1` [compound 1, F1673-0402]: the midpoint of inhibition in data set [1], the IC50, lay at 49.9 µM. That is a double-digit micromolar value. In data set [1], `CCOC(=O)C1CCN(C2=NC(=O)/C(=C\c3ccc(Cl)cc3)S2)CC1` [compound 2, 6632725] displayed a concentration for half-maximal inhibition (IC50) of 59.1 µM. Consider “Mt-AspS (M. tuberculosis aspartyl-tRNA synthetase) (Mycobacterium tuberculosis H37Rv)”, for which the Km in the data set with N[C@@H](CC(=O)O)C(=O)O is 143.4 ± 18.83 µM; in data set [2] it was 604.7 ± 40.27 µM; in data set [3], 98.25 ± 11.23 µM; with O=P(O)(O)OP(=O)(O)O, 76.42 ± 10.10 µM.

B1: Mycobacterium smegmatis aspartyl-tRNA synthetase AspS (enzyme, UniProt A0QWN3 1-598, looked up)
chain: MLRTHAAGSLRPADAGQTVTLAGWVARRRDHGGVIFIDLRDASGVSQVVFREGDVLAAAHRLRAEFCVAVTGVVEVRPEGNENPEIPTGQIEVNATELTVLGESAPLPFQLDEQAGEEARLKYRYLDLRREGPGNALRLRSKVNAAARSVLAEHDFVEIETPTLTRSTPEGARDFLVPARLQPGSFYALPQSPQLFKQLLMVAGMERYYQIARCYRDEDFRADRQPEFTQLDMEMSFVEADDVIAISEQVLKAVWATIGYDLPLPLPRISYEEAMRRFGSDKPDLRFGIELVECTEYFKDTTFRVFQAPYVGAVVMPGGASQPRRTLDGWQEFAKQRGHKGLAYVLVGEDGTLGGPVAKNLSDAERDGLVAHVGANPGDCIFFAAGPAKGARALLGATRIEIAKRLDLIDPNAWAFTWVVDFPMFEAADEATAAGDVAVGSGAWTAMHHAFTAPKPDSVDTFDSDPGNALSDAYDIVCNGNEIGGGSIRIHRRDIQERVFAMMGIDHDEAQEKFGFLLDAFSYGAPPHGGIAFGWDRITALLAGVDSIREVIAFPKSGGGVDPLTDAPAPITPQQRKESGIDAKPREDKPKEDAKSKA
notes: Aspartyl-tRNA synthetase AspS of Mycobacterium smegmatis; The expression and purification protocol is printed only for Mt-AspS (E. coli C41 (DE3), Ni2+ HisTrap); also called Ms-AspS; MsAspS; source: cloned from M. smegmatis genomic DNA into pET28b; dialysed and concentrated by ultrafiltration before crystallisation
As for B1, the “stoichiometry N” value in data set [4] was 2.

By IC50 is commonly meant the point on the concentration scale where inhibition reaches its midpoint. Broadly, the Km is the concentration of substrate that gives half-maximal velocity. Broadly, the stoichiometry N is the number of molecules, sites or subunits per partner or assembly.
